Source: article PMC10397247

How the values were obtained:
Experiment in all cases: two-hybrid library CCmax;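 further: natural log of median RNA to DNA barcode read ratio; higher means stronger binding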
4H1738-AA = target: T1, 4H1738-AA; settings: mean of both orientations
T1 chain: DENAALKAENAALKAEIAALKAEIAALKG

4H391-AA = target: T2, 4H391-AA; settings: mean of both orientations
T2 chain: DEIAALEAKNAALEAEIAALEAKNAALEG

4H1391-AA = target: T3, 4H1391-AA; settings: mean of both orientations
T3 chain: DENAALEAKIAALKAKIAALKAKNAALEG

4H428-AA = target: T4, 4H428-AA; settings: mean of both orientations
T4 chain: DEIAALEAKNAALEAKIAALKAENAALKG

4H3628-AA = target: T5, 4H3628-AA; settings: mean of both orientations
T5 chain: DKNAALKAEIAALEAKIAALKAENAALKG

4H3920-AA = target: T6, 4H3920-AA; settings: mean of both orientations
T6 chain: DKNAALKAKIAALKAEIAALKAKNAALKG

P6-AA-1HGe-M = target: T7, P6-AA-1HGe-M
T7 chain: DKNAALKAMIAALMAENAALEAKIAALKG

P5-AA-12HGe-Q = target: T8, P5-AA-12HGe-Q; settings: mean of both orientations
T8 chain: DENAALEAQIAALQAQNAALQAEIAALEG

4H3619-AA = target: T9, 4H3619-AA; settings: mean of both orientations
T9 chain: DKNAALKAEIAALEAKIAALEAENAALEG

4H2447-AA = target: T10, 4H2447-AA; settings: mean of both orientations
T10 chain: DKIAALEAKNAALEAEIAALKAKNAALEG

4H3705-AA = target: T11, 4H3705-AA; settings: mean of both orientations
T11 chain: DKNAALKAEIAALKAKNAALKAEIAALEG

4H2750-AA = target: T12, 4H2750-AA; settings: mean of both orientations
T12 chain: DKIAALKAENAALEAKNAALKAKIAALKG

B1: 4H1626-AA (peptide)
chain: DENAALKAEIAALKAENAALKAEIAALKG
B1 showed an interaction score (4H1738-AA) of -0.841.

B2: 4H1064-AA (peptide)
chain: DENAALEAEIAALEAKIAALEAKNAALKG
With B2 the interaction score (4H391-AA) was -1.37, the interaction score (4H1391-AA) was 1.33 and the interaction score (4H428-AA) was -1.04. The interaction score (4H3628-AA) was 1.07 and the interaction score (4H3920-AA) was 1.13.

B3: 4H1401-AA (peptide)
chain: DENAALEAKIAALKAKNAALKAEIAALEG
In the case of B3, the interaction score (P6-AA-1HGe-M) is reported as 2.24.

B4: 4H3606-AA (peptide)
chain: DKNAALKAEIAALEAENAALEAKIAALKG
For B4, the interaction score (P5-AA-12HGe-Q) was 1.98.

B5: 4H249-AA (peptide)
chain: DEIAALEAENAALKAKNAALKAEIAALEG
B5 showed an interaction score (4H3619-AA) of -1.97.

B6: 4H1845-AA (peptide)
chain: DENAALKAKIAALEAKNAALEAKIAALEG
B6 showed an interaction score (4H2447-AA) of -1.57.

B7: 4H1257-AA (peptide)
chain: DENAALEAENAALKAKIAALKAEIAALEG
In the case of B7, the interaction score (4H3705-AA) is reported as -1.52 and the interaction score (4H2750-AA) is reported as -1.22.
